# Data: patent publication US20030180744, “High affinity oligonucleotide ligands to growth factors” (GILEAD SCIENCES, INC., published 2003)
# T1: KGF (hKGF) (Homo sapiens, UniProt P21781 P21781:32-194)
# T1 sequence: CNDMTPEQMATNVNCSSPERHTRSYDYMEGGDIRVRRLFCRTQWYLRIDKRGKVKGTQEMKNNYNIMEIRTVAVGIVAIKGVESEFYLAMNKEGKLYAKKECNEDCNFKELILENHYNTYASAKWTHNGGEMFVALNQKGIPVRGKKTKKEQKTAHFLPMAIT
# Columns and labels:
# PDGF-AB [1] = target: T2, PDGF-AB (Homo sapiens, UniProt P04085;P01127 P04085:87-211,P01127:82-190); assay: filter; thrombin aptamer control; conditions: tags: R&D Systems, E. coli; stem-loop
# T2 sequence (P01127 82-190, chain 2 of 2, other chains not shown): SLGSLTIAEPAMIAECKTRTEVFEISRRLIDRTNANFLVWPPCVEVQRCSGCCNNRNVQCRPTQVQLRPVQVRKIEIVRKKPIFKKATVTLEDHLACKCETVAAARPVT
# Procedure: (§1) The binding of ssDNA ligands at low concentrations to varying concentrations of PDGF was determined by the nitrocellulose filter binding method as described (Green et al., (1995) Chemistry and Biology 2:683-695). The concentrations of PDGF stock solutions (in PBS) were determined from the absorbance readings at 280 nm using the following e₂₈₀ values calculated from the amino acid sequences (Gill, S.C. and von Hippel, P. H. (1989) Anal. Biochem. 182:319-326): 19,500 M⁻¹cm⁻¹ for PDGF-AA, 15,700 M⁻¹cm⁻¹ for PDGF-AB and 11,800 M⁻¹cm⁻¹ for PDGF-BB. ssDNA for all binding experiments were purified by electrophoresis on 8% (>80 nucleotides) or 12% (<40 nucleotides) polyacrylamide/7 M urea gels. All ssDNA ligands were heated at 90° C. in binding buffer at high dilution (1 μM) for 2 min and cooled on ice prior to further dilution into the protein solution. The binding mixtures were typically incubated for 15 min at 37° C. before partitioning on nitrocellulose filters.
# PDGF-AB [2] = target: T2, PDGF-AB; assay: filter; +/-38; high affinity component of biphasic binding; conditions: tags: R&D Systems, E. coli
# Procedure: (§2) Briefly, the 2′-fluoro-2′-deoxypyrimidine RNA for affinity selections was prepared by in vitro transcription from synthetic DNA templates using T7 RNA polymerase (Milligan et al., Nucl. Acids Res. 15:8783 (1987)). The conditions for in vitro transcription described in detail previously (Jellinek et al., (1994) supra) were used, except that higher concentration (3 mM) of the 2′-fluoro-2′-deoxypyrimidine nucleoside triphosphates (2′-F-UTP and 2′-F-CTP) was used compared to ATP and GTP (1 mM). Affinity selections were done by incubating PDGF AB with 2′-fluoro-2′-deoxypyrimidine RNA for at least 15 min at 37° C. in PBS containing 0.01% human serum albumin. Partitioning of free RNA from protein-bound RNA was done by nitrocellulose filtration as described (Jellinek et al., (1993, 1994) supra). Reverse transcription of the affinity-selected RNA and amplification by PCR were done as described previously (Jellinek et al., (1994) supra). […] The affinity-enriched pool (round 19) was cloned and sequenced as described (Schneider et al., (1992) supra). The unique-sequence ligands were screened for their ability to bind PDGF AB with high affinity.
# PDGF-AB [3] = target: T2, PDGF-AB; assay: filter; +/-34; high affinity component of biphasic binding; conditions: tags: R&D Systems, E. coli
# Procedure: as §2
# KGF (hKGF) [4] = target: T1, KGF (hKGF); assay: filter; second value 8.70 nM; conditions: tags: Upstate Biotechnology; label: 32P
# TGFβ1 [5] = target: T3, TGFβ1 (Homo sapiens, UniProt P01137 P01137:279-390); assay: filter; 37 C; cell IC50 17 nM; conditions: tags: Genentech; biotinylated version used in bead assay; chain copies: 2
# T3 sequence (P01137 279-390, one chain of several): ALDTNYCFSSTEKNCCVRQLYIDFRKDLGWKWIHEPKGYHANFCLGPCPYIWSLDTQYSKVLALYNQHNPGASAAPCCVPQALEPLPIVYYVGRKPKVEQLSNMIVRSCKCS
# TGFβ1 [6] = target: T3, TGFβ1; assay: cell_activity; conditions: tags: Genentech or R&D Systems; chain copies: 2
# Procedure: MLEC-Pail/luc cells were plated at 3.2×10⁴ cells per well in a 96 well Falcon plate, in 100 μl of DME+10% fetal bovine serum overnight. Media was made from autoclaved water. The cells were washed three times ([…]) in serum free DME plus Solution A (1:1). Solution A is 30 mM Hepes pH 7.6, 10 mM glucose, 3.0 mM KCl, 131 mM NaCl, 1.0 mM disodium phosphate. Samples (100 μl) were added in DME containing 20 mM Hepes pH 7.5, and 0.1% BSA (Fluka, radioimmunoassay grade). All samples were in triplicate. After six hours at 37° C. in a 5% CO₂ incubator the media was removed and cells were washed three times (100 μl each) in cold PBS. Lysis buffer (75 μl) (Analytical Luminescence Laboratory) was added and the plates incubated on ice for 20 min. The plates were sealed and frozen at −80° C. until assayed. Samples (25 μl) were assayed for luciferase activity with the Enhanced Luciferase Assay Kit from Analytical Luminescence Laboratory (San Diego, Calif., USA) according to the manufacturer's instructions using the Berthold Microlumat LB96P luminometer.
# Ligands tested for inhibition of TGFβ1 activity were tested at a minimum of five concentrations. The ligands were serially diluted in DME, 20 mM Hepes pH 7.5, 0.1% Fluka BSA in polypropylene tubes and an equal volume of media containing 12 pM TGFβ1 was added to each tube, vortexed and transferred to the cells without further incubation.
# KGF (hKGF) [7] = target: T1, KGF (hKGF); assay: competition; PC-3 cells; conditions: tags: Upstate Biotechnology
# Procedure: PC-3 cells were plated in 24-well plates at about 10⁵ cells per well. Following growth for […], the cells were serum starved for 24 hours, washed two times with 500 μl of cold DPBS, and then incubated with 500 μl binding buffer (BB1; DPBS, 0.5 mM MgCl₂, 0.2% BSA. 0.02% sodium azide) containing various concentrations of ¹²⁵I-labeled KGF ranging from 0 to 0.8 nM. Following 3-3.5 hour incubation at 4° C., the binding mixes were aspirated and the well-adhered cells were washed two times with 1 ml BB1 and once with 1 ml BB1 supplemented with 0.5M NaCl. The remaining bound labeled hKGF was solubilized in 600 μl 0.5% SDS/0.1M NaOH and counted in a gamma counter (Beckmann). Nonspecific binding was determined in the presence of 100 fold molar excess of unlabeled hKGF. For competition assays, the labeled hKGF was kept constant at […], and varying concentrations of competitor molecules were included in the binding reactions ranging from 0-1,000 nM. Binding curves were fitted to the equation: […]
# A subset of these ligands was tested on the NIH3T3/FGFR-2. In determining the Ki values, it was assumed that 3T3 cells have 500,000 binding sites per cell and PC-3 cells have 5,000 binding sites per cell.
# KGF (hKGF) [8] = target: T1, KGF (hKGF); assay: filter; biphasic, high affinity 28%; conditions: tags: Upstate Biotechnology; label: 32P
# PDGF-AA [9] = target: T4, PDGF-AA (Homo sapiens, UniProt P04085 P04085:87-211); assay: filter; +/-12; PBSM, 37 C; comparable to random DNA; conditions: tags: R&D Systems, E. coli, long form of A-chain; chain copies: 2 (inferred); label: 5'-32P; three-way helix junction
# Procedure: (§3) The fraction of ³²P 5′ nd-labeled DNA ligands bound to varying concentrations of PDGF was determined by the nitrocellulose filter binding method. Minimal ligands tested were 20t (o), 36t (Δ), and 41t (□). Oligonucleotide concentrations in these experiments were ≈10 pM (PDGF-AB and PDGF-BB) and ≈50 pM (PDGF AA). Data points were fitted to eq. 1 (for binding of the DNA ligands to PDGF-AA) or to eq. 2 (for binding to PDGF AB and BB) using the non-linear least squares method. Binding reactions were done at 37° C. in binding buffer (PBSM with 0.01% HSA).
# as §1, with “All ssDNA ligands were heated at 90° C. in binding buffer at high dilution (1 μM) for 2 min and cooled on ice prior to further dilution into the protein solution. The binding mixtures were typically incubated for 15 min at 37° C. before partitioning on nitrocellulose filters.” left out
# PDGF-AB [10] = target: T2, PDGF-AB; assay: filter; +/-0.011; high affinity component; PBSM, 37 C; conditions: tags: R&D Systems, E. coli; label: 5'-32P; three-way helix junction
# Procedure: as §3, §1
# (§4) ^aData points shown in FIG. 5A were fitted to eq 1 (Example 7). ^bData points in FIGS. 5B and 5C were fitted to eq. 2.
# PDGF-BB [11] = target: T5, PDGF-BB (Homo sapiens, UniProt P01127 P01127:82-190); assay: filter; +/-0.009; high affinity component; PBSM, 37 C; conditions: tags: R&D Systems, E. coli; chain copies: 2 (inferred); label: 5'-32P; three-way helix junction
# T5 sequence (P01127 82-190, one chain of several): as the sequence (P01127 82-190, chain 2 of 2, other chains not shown) above
# Procedure: as §3
# as §1, with “All ssDNA ligands were heated at 90° C. in binding buffer at high dilution (1 μM) for 2 min and cooled on ice prior to further dilution into the protein solution. The binding mixtures were typically incubated for 15 min at 37° C. before partitioning on nitrocellulose filters.” left out
# KGF (hKGF) [12] = target: T1, KGF (hKGF); assay: filter; biphasic, high affinity 33%; conditions: tags: Upstate Biotechnology; label: 32P
# TGFβ1 [13] = target: T3, TGFβ1; assay: filter; 37 C; cell IC50 49 nM; conditions: tags: Genentech; biotinylated version used in bead assay; chain copies: 2
# PDGF-AA [14] = target: T4, PDGF-AA; assay: filter; +/-8; PBSM, 37 C; comparable to random DNA; conditions: tags: R&D Systems, E. coli, long form of A-chain; chain copies: 2 (inferred); label: 5'-32P; three-way helix junction
# Procedure: as §3
# as §1, with “All ssDNA ligands were heated at 90° C. in binding buffer at high dilution (1 μM) for 2 min and cooled on ice prior to further dilution into the protein solution. The binding mixtures were typically incubated for 15 min at 37° C. before partitioning on nitrocellulose filters.” left out
# PDGF-BB [15] = target: T5, PDGF-BB; assay: filter; +/-0.011; high affinity component; PBSM, 37 C; conditions: tags: R&D Systems, E. coli; chain copies: 2 (inferred); label: 5'-32P; three-way helix junction
# Procedure: as §3, §1, §4
# PDGF-AB [16] = target: T2, PDGF-AB; assay: filter; +/-0.009; high affinity component; PBSM, 37 C; conditions: tags: R&D Systems, E. coli; label: 5'-32P; three-way helix junction
# Procedure: as §3
# as §1, with “All ssDNA ligands were heated at 90° C. in binding buffer at high dilution (1 μM) for 2 min and cooled on ice prior to further dilution into the protein solution. The binding mixtures were typically incubated for 15 min at 37° C. before partitioning on nitrocellulose filters.” left out
# TGFβ1 [17] = target: T3, TGFβ1; assay: filter; 37 C; cell IC50 210 nM; conditions: tags: Genentech; biotinylated version used in bead assay; chain copies: 2
# TGFβ1 [18] = target: T3, TGFβ1; assay: filter; 37 C; cell IC50 124 nM; conditions: tags: Genentech; biotinylated version used in bead assay; chain copies: 2
# KGF (hKGF) [19] = target: T1, KGF (hKGF); assay: filter; biphasic, high affinity 43%; Kd2 2.55 nM; conditions: tags: Upstate Biotechnology; label: 32P
binder,measurement,setting,value
"CAGTCCGTGGTAGGGCAGGTTGGGGTGACTTCGTGGAAT (ssDNA, 3'-3' linked T at 3' end) [T39]",Kd,PDGF-AB [1],230 nM
"PDGF 2'-F clone 23 (ssRNA, 2'-F pyrimidines) RNA: GGGAGACAAGAAUAACGCUCAAUCGAUCGGUUGUGUGCCGGACAGCUUUGACCAUGAGCUGGGACCGAGGCCUUCGACAGGAGGCUCACAACAGGC",Kd,PDGF-AB [2],0.173 nM
"PDGF 2'-F clone 16 (ssRNA, 2'-F pyrimidines) RNA: GGGAGACAAGAAUAACGCUCAACGAACGAGGAGGGAGUGGCAAGGGAUGGUUGGAUAGGCUCUACGCUCAUUCGACAGGAGGCUCACAACAGGC",Kd,PDGF-AB [3],0.116 nM
"20F (ssRNA, 2'-F pyrimidines) RNA: GGGAGGACGAUGCGGAGUAUUCCAGCCUGGAUUCAUAGUCAGUGCUCUCCGUGCCCAGACGACUCGCCCGA",Kd,KGF (hKGF) [4],2.05 nM
"lib5-7 (ssRNA, 2'-NH2 pyrimidines) RNA: GGGGGAGAACGCGGAUCCGAGCAAGCCCUGGCAUAGCUUCCGAGUAGACAGGAGGGAGGGGUGGAUGUGGCGUCUACUCGGUGUCGUGAAGCUUCGCUCUAGAUCUCCCUUUAGUGAGGGUUA",Kd,TGFβ1 [5],3.4 nM
same,IC50,TGFβ1 [6],17 nM
"13F (ssRNA, 2'-F pyrimidines) RNA: GGGAGGACGAUGCGGCACCUUAGACCUGUCCUCCAAGCGUGAGUUGCUGUGGCCCAGACGACUCGCCCGA",IC50,KGF (hKGF) [7],30 nM
same,Kd,KGF (hKGF) [8],0.03 nM
"CACAGGCTACGGCACGTAGAGCATCACCATGATCCTGTGT (ssDNA, 3'-3' linked T at 3' end) [36t]",Kd,PDGF-AA [9],72 nM
same,Kd,PDGF-AB [10],0.094 nM
same,Kd,PDGF-BB [11],0.093 nM
"15F (ssRNA, 2'-F pyrimidines) RNA: GGGAGGACGAUGCGGUCAUGGUGUCUUUCCACAGCUCUUCCCAUGAUCGCCCGGCCAGACGACUCGCCCGA",IC50,KGF (hKGF) [7],20 nM
same,Kd,KGF (hKGF) [12],0.07 nM
"lib5-5 (ssRNA, 2'-NH2 pyrimidines) RNA: GGGGGAGAACGCGGAUCCGAGCAAUCCCAGGCGCAUAGCUUCCGAGUAGACAGGAGGGAGGGGUGGAUGUGGCGUCUCGAGGAAGCUUCGCUCUAGAUCUCCCUUUAGUGAGGGUUA",Kd,TGFβ1 [13],2.4 nM
same,IC50,TGFβ1 [6],49 nM
"TACTCAGGGCACTGCAAGCAATTGTGGTCCCAATGGGCTGAGTAT (ssDNA, 3'-3' linked T at 3' end) [41t]",Kd,PDGF-AA [14],49 nM
same,Kd,PDGF-BB [15],0.129 nM
same,Kd,PDGF-AB [16],0.138 nM
"lib8-9 (ssRNA, 2'-NH2 pyrimidines) RNA: GGGGGAGAACGCGGAUCCGCAAUCCCAGGCGCAUAGCUUCCGAGUAGACAGGAGGGAGGGGUGGAUGUGGCGUCUACUCGGCGUCGUGAAGCUUCGCUCUAGAUCUCCCUUUAGUGAGGGUUA",Kd,TGFβ1 [17],1.7 nM
same,IC50,TGFβ1 [6],210 nM
"lib8-9* (ssRNA, 2'-NH2 U, 2'-F C) RNA: GGGGGAGAACGCGGAUCCGCAAUCCCAGGCGCAUAGCUUCCGAGUAGACAGGAGGGAGGGGUGGAUGUGGCGUCUACUCGGCGUCGUGAAGCUUCGCUCUAGAUCUCCCUUUAGUGAGGGUUA",Kd,TGFβ1 [18],2.8 nM
"26F (ssRNA, 2'-F pyrimidines) RNA: GGGAGGACGAUGCGGUCAAGCUUAACAGUCUGGCAAUGGCCAUUAUGGCGCCCCAGACGACUCGCCCGA",Kd,KGF (hKGF) [19],0.23 nM
